Our source for the stoichiometry N and Kd values is publication PMC5681642.

Assay [1] addresses Recombinant BTA121 (Borrelia turicatae), dodeca-His tag cleaved (Borrelia turicatae). Briefly: SEC; Phenomenex Yarra 3 µ SEC-2000 HPLC column, 1.0 mg/mL, 50 µg loaded, room temperature, 0.5 mL/min; molecular weight estimated with Bio-rad gel filtration standard.
In a further assay the target is T1, BTA121 (Borrelia turicatae, UniProt A0A0R9P931).
T1 construct: signal peptide and further N-terminal residues removed, putative PARP domain kept; N-terminal dodeca-His tag cut with TEV protease; E. coli BL21-CodonPlus(DE3)-RIPL; predominantly monomer, some dimer
Briefly: radioligand binding, Q-sepharose separation, scintillation counting. An excerpt:
radioligand binding, Q-sepharose separation, scintillation counting on BTA121 | BTA121 binds palmitate with micromolar Kd

The stoichiometry N is a count of units in the complex or per binding partner. Consider “Recombinant BTA121 (Borrelia turicatae), dodeca-His tag cleaved (from UniProt A0A0R9P931 1-445) (natural protein)”, for which, in assay [1], the stoichiometry N was 2.
One may read the Kd as a measure of binding affinity in units of concentration. As for `CCCCCCCCCCCCCCCC(=O)O` [palmitate], the Kd on BTA121 stood at 229 µM.
